Assay results: US10704056B2, “Constitutively active ABA receptor mutants” (The Regents of the University of California, priority 2011, dated 2020)

Test system: ABA-regulated genes Em6, LEA and Rd29b
Assay: qRT-PCR of ABA-regulated genes in imbibed seeds
Assay type: in vivo, Arabidopsis
Details: seeds imbibed 32 hours, no ABA treatment; 35S-driven lines
Procedure: To investigate if other ABA responses are affected in the PYL2^CA3 lines, we profiled the expression levels of several ABA-regulated genes using quantitative RT-PCR (qRT-PCR). For these experiments, seeds of Col, 35S::PYL2, and two independent 35S:: PYL2^CA3 transgenic lines were imbibed for 32 hours in either water or 5 μM ABA at room temperature under continuous illumination, after which RNA was isolated using Concert™ Plant RNA Reagent and utilized in qRT-PCR reactions using primers for the ABA-regulated genes Em6 (At2g40170), LEA (At2g21490), and Rd29b (At5g52300). Biological duplicates with triple technical replicate measurements were conducted and gene expression levels were determined. […] Real-time quantitative PCR analysis was performed by ΔΔCt method of relative quantification. […]
Wild type or transgenic lines were imbibed for 32 hours in either water or 5 μM ABA at room temperature under continuous illumination, after which RNA was isolated using Concert™ Plant RNA Reagent followed by LiCl2 precipitation and DNase treated using RNase-free DNAse (Ambion). […] Biological duplicates with triple technical replicate measurements were conducted and gene expression levels were determined. […] Real-time quantitative PCR analysis was performed by ΔΔCt method of relative quantification. […]

B1: PYL2^CA3: PYL2 mutant (H65P, V87F, F165V); expressed in plants as 35S-driven GFP fusion (protein)
chain: HHHHHHMSSSPAVKGLTDEEQKTLEPVIKTYHQFEPDPTTCTSLITQRIHAPASVVWPLIRRFDNPERYKPFVKRCRLISGDGDVGSVREVTFISGLPASTSTERLEFVDDDHRVLSFRVVGGEHRLKNYKSVTSVNEFLNQDSGKVYTVVLESYTVDIPEGNTEEDTKMVVDTVVKLNLQKLGVAATSAPMHDDE
- levels of ABA-regulated genes (Em6, LEA, Rd29b): elevated levels of ABA-regulated genes
